One molecule from patent US20260022175A1 (Chugai, published 2026) can be followed below.

Test in all cases: SPR Biacore 8k+ 25C, antibody captured, FcγR analyte; mean
(In general: Surface plasmon resonance follows binding to a sensor surface in real time, without labels.)

Test [1] concerns the target T1, cynomolgus monkey FcγRIIIa(R) extracellular domain with His tag (cynomolgus monkey, UniProt Q8SPW2 17-208).
T1 construct: also called cyFcγRIIIa(R)
Protocol: (§1) Here, Tremfya (Janssen Pharmaceutical K.K), which is an IgG1 antibody in which the L-chain is a X-chain, was also evaluated as a control. The binding activity was evaluated at 25° C. using as a running buffer 50 mM phosphate buffer, 150 mM NaCl, 0.05 w/v %-P20, pH7.4. As a molecule for ligand capture, CaptureSelect (trademark) Human Fab-lambda Kinetics Biotin Conjugate (ThermoFisher scientific) was immobilized onto a Series S Sensor chip SA sensor chip (Cytiva). An antibody solution prepared with the running buffer was allowed to interact with the SA sensor chip for capturing about 250 RU, or 500 RU, or about 1000 RU, of antibody. Then, hFcγRs and cyFcγRs diluted with the running buffer were allowed to bind to the captured antibodies. […] The chip was regenerated using 10 mM Glycine-HCl (pH 1.5), and measurements were performed by repeatedly capturing the antibodies. The binding activity of each antibody for each FcγR was evaluated by calculating the KD value using the Biacore Insight Evaluation Software with the Steady state model or 1:1 binding model.

Test [2] has as its target T2, cynomolgus monkey FcγRIa extracellular domain with His tag (cynomolgus monkey, UniProt P12314 16-288 (human entry)).
T2 construct: also called cyFcγRIa
T2 chain: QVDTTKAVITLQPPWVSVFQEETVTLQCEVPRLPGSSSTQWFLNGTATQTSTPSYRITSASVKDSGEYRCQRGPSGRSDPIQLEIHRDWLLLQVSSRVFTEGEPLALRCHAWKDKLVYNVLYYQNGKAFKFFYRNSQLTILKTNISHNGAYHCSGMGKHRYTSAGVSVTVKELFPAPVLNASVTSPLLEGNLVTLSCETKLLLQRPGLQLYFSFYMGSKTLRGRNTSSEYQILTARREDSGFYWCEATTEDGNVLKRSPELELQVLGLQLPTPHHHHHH
Protocol: as §1

Test [3] addresses T3, cynomolgus monkey FcγRIIa3 extracellular domain with His tag (cynomolgus monkey).
T3 construct: also called cyFcγRIIa3
T3 chain: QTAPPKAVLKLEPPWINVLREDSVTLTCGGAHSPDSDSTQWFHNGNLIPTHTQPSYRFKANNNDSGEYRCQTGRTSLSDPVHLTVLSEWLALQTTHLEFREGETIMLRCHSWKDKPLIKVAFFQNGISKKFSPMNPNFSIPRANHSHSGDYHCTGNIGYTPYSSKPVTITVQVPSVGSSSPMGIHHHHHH
Protocol: as §1

In test [4] the target is T4, cynomolgus monkey FcγRIIb extracellular domain with His tag (cynomolgus monkey).
T4 construct: also called cyFcγRIIb
T4 chain: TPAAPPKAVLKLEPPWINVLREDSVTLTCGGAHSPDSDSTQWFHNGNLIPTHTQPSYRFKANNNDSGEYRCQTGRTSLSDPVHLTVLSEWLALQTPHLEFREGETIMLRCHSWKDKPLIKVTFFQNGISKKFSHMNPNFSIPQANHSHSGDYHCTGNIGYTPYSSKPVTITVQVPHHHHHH
Protocol: as §1

The target of test [5] is T5, cynomolgus monkey FcγRIIa2 extracellular domain with His tag (cynomolgus monkey).
T5 construct: also called cyFcγRIIa2
T5 chain: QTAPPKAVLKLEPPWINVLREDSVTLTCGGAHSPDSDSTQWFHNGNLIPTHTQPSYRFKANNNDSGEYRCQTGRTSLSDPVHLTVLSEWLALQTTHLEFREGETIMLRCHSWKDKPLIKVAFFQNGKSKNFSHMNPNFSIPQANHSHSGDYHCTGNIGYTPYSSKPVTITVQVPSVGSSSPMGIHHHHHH
Protocol: as §1

Test [6] concerns the target T6, cynomolgus monkey FcγRIIa1 extracellular domain with His tag (cynomolgus monkey).
T6 construct: also called cyFcγRIIa1
T6 chain: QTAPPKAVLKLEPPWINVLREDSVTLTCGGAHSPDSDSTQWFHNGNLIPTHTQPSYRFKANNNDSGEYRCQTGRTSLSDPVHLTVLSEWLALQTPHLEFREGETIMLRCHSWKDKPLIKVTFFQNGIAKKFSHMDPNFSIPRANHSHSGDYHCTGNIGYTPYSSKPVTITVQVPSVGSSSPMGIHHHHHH
Protocol: as §1

Test [7] deals with T7, cynomolgus monkey FcγRIIIa(S) extracellular domain with His tag (cynomolgus monkey, UniProt Q8SPW2 21-206 at identity 1.00)).
T7 construct: also called cyFcγRIIIa(S)
T7 chain: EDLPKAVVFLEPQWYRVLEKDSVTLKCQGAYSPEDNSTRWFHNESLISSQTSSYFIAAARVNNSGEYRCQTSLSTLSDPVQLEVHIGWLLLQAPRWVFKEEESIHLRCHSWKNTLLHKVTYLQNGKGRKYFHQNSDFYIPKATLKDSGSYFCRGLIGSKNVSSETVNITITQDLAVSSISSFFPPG
Protocol: as §1

Test [8] has as its target T8, human FcγRIa extracellular domain with C-terminal His tag (human, UniProt P12314 16-288).
T8 construct: also called hFcγRIa
Protocol: as §1

Test [9] concerns the target T9, human FcγRIIIa(V) extracellular domain with C-terminal His tag (human, UniProt P08637 17-208).
T9 construct: also called hFcγRIIIa(V)
Protocol: as §1

Test [10] concerns the target T10, human FcγRIIb extracellular domain with C-terminal His tag (human, UniProt P31994 43-217).
T10 construct: also called hFcγRIIb
T10 sequence: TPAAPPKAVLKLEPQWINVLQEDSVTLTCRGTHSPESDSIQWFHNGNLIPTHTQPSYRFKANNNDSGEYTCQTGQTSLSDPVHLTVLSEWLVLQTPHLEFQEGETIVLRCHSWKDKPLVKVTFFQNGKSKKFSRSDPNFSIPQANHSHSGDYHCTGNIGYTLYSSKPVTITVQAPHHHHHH
Protocol: as §1

The target in test [11] is T11, human FcγRIIIa(F) extracellular domain with C-terminal His tag (human, UniProt P08637 17-208).
T11 construct: also called hFcγRIIIa(F)
Protocol: as §1

In test [12] the target is T12, human FcγRIIa(H) extracellular domain with C-terminal His tag (human, UniProt P12318 34-217).
T12 construct: also called hFcγRIIa(H)
T12 sequence: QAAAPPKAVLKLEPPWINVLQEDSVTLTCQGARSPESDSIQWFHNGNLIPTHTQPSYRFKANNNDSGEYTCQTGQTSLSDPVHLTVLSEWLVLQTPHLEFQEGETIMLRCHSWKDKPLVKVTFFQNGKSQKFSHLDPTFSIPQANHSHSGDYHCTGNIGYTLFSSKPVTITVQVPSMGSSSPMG
Protocol: as §1

Test [13] concerns the target T13, human FcγRIIa(R) extracellular domain with C-terminal His tag (human, UniProt P12318 34-217).
T13 construct: also called hFcγRIIa(R)
T13 chain: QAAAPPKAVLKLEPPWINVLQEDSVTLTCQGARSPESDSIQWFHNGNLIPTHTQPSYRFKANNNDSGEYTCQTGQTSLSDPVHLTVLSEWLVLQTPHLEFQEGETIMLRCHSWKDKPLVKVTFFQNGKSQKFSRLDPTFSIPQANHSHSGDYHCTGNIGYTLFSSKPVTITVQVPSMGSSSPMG
Protocol: as §1

T11 sequence (P08637 other isoform, or with tags, fused parts or gaps): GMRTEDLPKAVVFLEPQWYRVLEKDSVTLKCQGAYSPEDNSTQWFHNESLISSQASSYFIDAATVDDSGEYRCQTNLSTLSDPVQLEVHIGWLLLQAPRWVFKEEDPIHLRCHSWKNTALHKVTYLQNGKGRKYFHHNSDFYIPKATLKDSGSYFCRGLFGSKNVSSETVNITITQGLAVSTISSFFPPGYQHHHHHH
T9 sequence (P08637 other isoform, or with tags, fused parts or gaps): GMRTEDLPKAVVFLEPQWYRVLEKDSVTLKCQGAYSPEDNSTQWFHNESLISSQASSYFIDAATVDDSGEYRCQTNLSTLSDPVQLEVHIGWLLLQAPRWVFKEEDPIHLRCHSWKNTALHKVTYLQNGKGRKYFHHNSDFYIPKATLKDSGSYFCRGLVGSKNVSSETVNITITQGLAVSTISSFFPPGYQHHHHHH
T1 sequence (Q8SPW2 other isoform, or with tags, fused parts or gaps): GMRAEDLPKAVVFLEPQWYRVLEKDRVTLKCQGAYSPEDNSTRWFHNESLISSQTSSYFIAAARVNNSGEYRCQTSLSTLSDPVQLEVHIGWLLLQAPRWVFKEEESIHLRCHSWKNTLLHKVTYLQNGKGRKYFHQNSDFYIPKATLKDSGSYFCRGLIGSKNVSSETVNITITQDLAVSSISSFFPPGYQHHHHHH

B1: 04H1654-KT498/04L1610-lam1//04H1656-HT518/04L1610-lam1 (antibody, human IgG1, lambda)
heavy 1: QVQLVESGGGVVQPGGSLRLSCAASGFTFSSKTMNWVRQAPGKGLEWVSSISTQSHYIYYARSVRGRFTISRDNAKNSLYLQMNSLRAEDTAVYYCARYGKREDMLWVFDYWGQGTLVTVSSASTKGPSVFPLAPSSKSTSGGTAALGCLVKDYFPEPVTVSWNSGALTSGVHTFPAVLQSSGLYSLSSVVTVPSSSLGTQTYICNVNHKPSNTKVDKRVEPKSCDKTHTCPPCPAPEFQWGPMVFLFPPKPKDVLMISRTPEVTCVVVDVSDEEPEVKFNWYVDGVEVHNAKTKPREEQYNATYRVVSVLPVLHQDWLNGKEYKCKVSNKALPMPIEKTISKAKGQPREPQVYTLPPSRKEMTKNQVSLTCLVKGFYPSDIAVEWESNGQPENNYKTTPPVLDSDGSFFLYSKLTVDKSRWQQGNVFSCSVMHEALHNHYTQKSLSLSP
heavy 2: QVQLVESGGGVVQPGGSLRLSCAASGFTFSSKTMNWVRQAPGKGLEWVSSISTQSHYIYYAESVRGRFTISRDNAKNSLYLQMNSLRAEDTAVYYCARYGAREDMLWVFDYWGQGTLVTVSSASTKGPSVFPLAPSSKSTSGGTAALGCLVKDYFPEPVTVSWNSGALTSGVHTFPAVLQSSGLYSLSSVVTVPSSSLGTQTYICNVNHKPSNTKVDKRVEPKSCDKTHTCPPCPAPELLGGPSVFLFPPKPKDVLMISRTPEVTCVVVDVSHEEPEVKFNWYVDGVEVHNAKTKPREEQYNATYRVVSVLPVLHQDWLNGKEYKCKVSNDALPMPIEETISKAKGQPREPQVYTLPPSREEMTKNQVSLTCLVKGFYPSDIAVEWESNGQPENNYKTTPPVLDSDGSFFLYSKLTVDKSRWQQGNVFSCSVMHEALHNHYTQESLSLSP
light: QSALTQPPSASGSPGQSVTISCEGPSTGVGDYNWVHWYQQHPGKAPKLMIYFTSKKPSGVPDRFSGSKSGNTASLTVSGLQAEDEADYYCQTYAAPLGPMFGGGTKLTVLGQPKAAPSVTLFPPSSEELQANKATLVCLISDFYPGAVTVAWKADSSPVKAGVETTTPSKQSNNKYAASSYLSLTPEQWKSHRSYSCQVTHEGSTVEKTVAPTECS
notes: also called SW1610-ART12
For the molecule B1, the Kd (commonly the equilibrium constant for the complex coming apart) in test [1] turned out to be 1.01 nM; in test [2] it was 0.0106 nM; in test [3] it was 5290 nM; in test [4], 2520 nM; in test [5], 2320 nM; in [6], 540 nM. The Kd stood at 0.933 nM in test [7]; 0.0387 nM in test [8]; 1.82 nM in test [9]; 38800 nM in test [10]; 4.13 nM in test [11]; 343 nM in [12]. Moreover, the dissociation constant Kd in [13] is 1790 nM.
